B1: NLV2 TCR alpha chain (CDR3α only) (parent)
chain: AGPMKTSYDKVI
partner: NLVGMVATV

Variants of: B1
Experiment: T-Switch: Jurkat TCRβ−/− cells expressing a CDR3 saturation-mutagenesis library, stained with two peptide-HLA-A*02:01 tetramers (original and novel peptide) plus anti-CD3, FACS-sorted into four gates, gDNA sequenced
Details: with HLA-A*02:01 with peptide … (NLV 2-2, the original bait), tetramers 1 µg/mL, 30 min on ice, DP and SW gates expanded about 10 days between rounds ('two to three rounds of selection' in the Methods), gate SP: higher = more of the variant in the gate that binds the original peptide and not the novel one = retained original binding. Fold enrichment of the CDR3 variant in one FACS gate of a two-tetra, unresolved parent, parent is a CDR3 fragment, scale: fold enrichment, numbering: sequential-on-construct, sequence …

Row | Variant | enrichment
1 | […] (CDR3 as printed); K10C derived by comparing it with the table's wild-type CDR3 AGPMKTSYDKVI | 0.162
2 | […] (CDR3 as printed); K10D derived by comparing it with the table's wild-type CDR3 AGPMKTSYDKVI | 0
3 | […] (CDR3 as printed); K10E derived by comparing it with the table's wild-type CDR3 AGPMKTSYDKVI | 0
4 | […] (CDR3 as printed); K10F derived by comparing it with the table's wild-type CDR3 AGPMKTSYDKVI | 0
5 | […] (CDR3 as printed); K10G derived by comparing it with the table's wild-type CDR3 AGPMKTSYDKVI | 0
6 | […] (CDR3 as printed); K10H derived by comparing it with the table's wild-type CDR3 AGPMKTSYDKVI | 0.422
7 | […] (CDR3 as printed); K10I derived by comparing it with the table's wild-type CDR3 AGPMKTSYDKVI | 0
8 | […] (CDR3 as printed); K10L derived by comparing it with the table's wild-type CDR3 AGPMKTSYDKVI | 0
9 | […] (CDR3 as printed); K10M derived by comparing it with the table's wild-type CDR3 AGPMKTSYDKVI | 0
10 | […] (CDR3 as printed); K10N derived by comparing it with the table's wild-type CDR3 AGPMKTSYDKVI | 0
11 | […] (CDR3 as printed); K10P derived by comparing it with the table's wild-type CDR3 AGPMKTSYDKVI | 0
12 | […] (CDR3 as printed); K10Q derived by comparing it with the table's wild-type CDR3 AGPMKTSYDKVI | 1.98
13 | […] (CDR3 as printed); K10R derived by comparing it with the table's wild-type CDR3 AGPMKTSYDKVI | 0
14 | […] (CDR3 as printed); K10S derived by comparing it with the table's wild-type CDR3 AGPMKTSYDKVI | 0
15 | […] (CDR3 as printed); K10T derived by comparing it with the table's wild-type CDR3 AGPMKTSYDKVI | 0
16 | […] (CDR3 as printed); K10V derived by comparing it with the table's wild-type CDR3 AGPMKTSYDKVI | 0
17 | […] (CDR3 as printed); K10W derived by comparing it with the table's wild-type CDR3 AGPMKTSYDKVI | 0
18 | […] (CDR3 as printed); K10Y derived by comparing it with the table's wild-type CDR3 AGPMKTSYDKVI | 4.15
19 | […] (CDR3 as printed); M4A derived by comparing it with the table's wild-type CDR3 AGPMKTSYDKVI | 8.93
20 | […] (CDR3 as printed); M4C derived by comparing it with the table's wild-type CDR3 AGPMKTSYDKVI | 0
21 | […] (CDR3 as printed); M4D derived by comparing it with the table's wild-type CDR3 AGPMKTSYDKVI | 0

Row | Variant | enrichment
22 | […] (CDR3 as printed); M4E derived by comparing it with the table's wild-type CDR3 AGPMKTSYDKVI | 27
23 | […] (CDR3 as printed); M4F derived by comparing it with the table's wild-type CDR3 AGPMKTSYDKVI | 0
24 | […] (CDR3 as printed); M4G derived by comparing it with the table's wild-type CDR3 AGPMKTSYDKVI | 0
25 | […] (CDR3 as printed); M4H derived by comparing it with the table's wild-type CDR3 AGPMKTSYDKVI | 2.65
26 | […] (CDR3 as printed); M4I derived by comparing it with the table's wild-type CDR3 AGPMKTSYDKVI | 18.9
27 | […] (CDR3 as printed); M4K derived by comparing it with the table's wild-type CDR3 AGPMKTSYDKVI | 0.788
28 | […] (CDR3 as printed); M4L derived by comparing it with the table's wild-type CDR3 AGPMKTSYDKVI | 0
29 | […] (CDR3 as printed); M4N derived by comparing it with the table's wild-type CDR3 AGPMKTSYDKVI | 0
30 | […] (CDR3 as printed); M4P derived by comparing it with the table's wild-type CDR3 AGPMKTSYDKVI | 0
31 | […] (CDR3 as printed); M4Q derived by comparing it with the table's wild-type CDR3 AGPMKTSYDKVI | 5.77
32 | […] (CDR3 as printed); M4R derived by comparing it with the table's wild-type CDR3 AGPMKTSYDKVI | 0
33 | […] (CDR3 as printed); M4S derived by comparing it with the table's wild-type CDR3 AGPMKTSYDKVI | 7.99
34 | […] (CDR3 as printed); M4T derived by comparing it with the table's wild-type CDR3 AGPMKTSYDKVI | 12.4
35 | […] (CDR3 as printed); M4V derived by comparing it with the table's wild-type CDR3 AGPMKTSYDKVI | 18.1
36 | […] (CDR3 as printed); M4W derived by comparing it with the table's wild-type CDR3 AGPMKTSYDKVI | 0
37 | […] (CDR3 as printed); M4Y derived by comparing it with the table's wild-type CDR3 AGPMKTSYDKVI | 0.292
38 | […] (CDR3 as printed); P3A derived by comparing it with the table's wild-type CDR3 AGPMKTSYDKVI | 0
39 | […] (CDR3 as printed); P3C derived by comparing it with the table's wild-type CDR3 AGPMKTSYDKVI | 0
40 | […] (CDR3 as printed); P3D derived by comparing it with the table's wild-type CDR3 AGPMKTSYDKVI | 0
41 | […] (CDR3 as printed); P3E derived by comparing it with the table's wild-type CDR3 AGPMKTSYDKVI | 0.526
42 | […] (CDR3 as printed); P3F derived by comparing it with the table's wild-type CDR3 AGPMKTSYDKVI | 0

Row | Variant | enrichment
43 | […] (CDR3 as printed); P3G derived by comparing it with the table's wild-type CDR3 AGPMKTSYDKVI | 0
44 | […] (CDR3 as printed); P3H derived by comparing it with the table's wild-type CDR3 AGPMKTSYDKVI | 0
45 | […] (CDR3 as printed); P3I derived by comparing it with the table's wild-type CDR3 AGPMKTSYDKVI | 1.59
46 | […] (CDR3 as printed); P3K derived by comparing it with the table's wild-type CDR3 AGPMKTSYDKVI | 0
47 | […] (CDR3 as printed); P3L derived by comparing it with the table's wild-type CDR3 AGPMKTSYDKVI | 0
48 | […] (CDR3 as printed); P3M derived by comparing it with the table's wild-type CDR3 AGPMKTSYDKVI | 0
49 | […] (CDR3 as printed); P3N derived by comparing it with the table's wild-type CDR3 AGPMKTSYDKVI | 0.173
50 | […] (CDR3 as printed); P3Q derived by comparing it with the table's wild-type CDR3 AGPMKTSYDKVI | 0
51 | […] (CDR3 as printed); P3R derived by comparing it with the table's wild-type CDR3 AGPMKTSYDKVI | 0
52 | […] (CDR3 as printed); P3S derived by comparing it with the table's wild-type CDR3 AGPMKTSYDKVI | 0
53 | […] (CDR3 as printed); P3T derived by comparing it with the table's wild-type CDR3 AGPMKTSYDKVI | 0
54 | […] (CDR3 as printed); P3V derived by comparing it with the table's wild-type CDR3 AGPMKTSYDKVI | 0.124
55 | […] (CDR3 as printed); P3W derived by comparing it with the table's wild-type CDR3 AGPMKTSYDKVI | 0
56 | […] (CDR3 as printed); P3Y derived by comparing it with the table's wild-type CDR3 AGPMKTSYDKVI | 0
57 | […] (CDR3 as printed); S7A derived by comparing it with the table's wild-type CDR3 AGPMKTSYDKVI | 3.32
58 | […] (CDR3 as printed); S7C derived by comparing it with the table's wild-type CDR3 AGPMKTSYDKVI | 0
59 | […] (CDR3 as printed); S7D derived by comparing it with the table's wild-type CDR3 AGPMKTSYDKVI | 0
60 | […] (CDR3 as printed); S7E derived by comparing it with the table's wild-type CDR3 AGPMKTSYDKVI | 0
61 | […] (CDR3 as printed); S7F derived by comparing it with the table's wild-type CDR3 AGPMKTSYDKVI | 0
62 | […] (CDR3 as printed); S7G derived by comparing it with the table's wild-type CDR3 AGPMKTSYDKVI | 0
63 | […] (CDR3 as printed); S7H derived by comparing it with the table's wild-type CDR3 AGPMKTSYDKVI | 0

Row | Variant | enrichment
64 | […] (CDR3 as printed); S7I derived by comparing it with the table's wild-type CDR3 AGPMKTSYDKVI | 0
65 | […] (CDR3 as printed); S7K derived by comparing it with the table's wild-type CDR3 AGPMKTSYDKVI | 0
66 | […] (CDR3 as printed); S7L derived by comparing it with the table's wild-type CDR3 AGPMKTSYDKVI | 0
67 | […] (CDR3 as printed); S7M derived by comparing it with the table's wild-type CDR3 AGPMKTSYDKVI | 0
68 | […] (CDR3 as printed); S7N derived by comparing it with the table's wild-type CDR3 AGPMKTSYDKVI | 0
69 | […] (CDR3 as printed); S7P derived by comparing it with the table's wild-type CDR3 AGPMKTSYDKVI | 0
70 | […] (CDR3 as printed); S7Q derived by comparing it with the table's wild-type CDR3 AGPMKTSYDKVI | 0
71 | […] (CDR3 as printed); S7R derived by comparing it with the table's wild-type CDR3 AGPMKTSYDKVI | 0
72 | […] (CDR3 as printed); S7T derived by comparing it with the table's wild-type CDR3 AGPMKTSYDKVI | 0
73 | […] (CDR3 as printed); S7V derived by comparing it with the table's wild-type CDR3 AGPMKTSYDKVI | 0
74 | […] (CDR3 as printed); S7W derived by comparing it with the table's wild-type CDR3 AGPMKTSYDKVI | 0
75 | […] (CDR3 as printed); S7Y derived by comparing it with the table's wild-type CDR3 AGPMKTSYDKVI | 0
76 | […] (CDR3 as printed); T6A derived by comparing it with the table's wild-type CDR3 AGPMKTSYDKVI | 0
77 | […] (CDR3 as printed); T6C derived by comparing it with the table's wild-type CDR3 AGPMKTSYDKVI | 0
78 | […] (CDR3 as printed); T6D derived by comparing it with the table's wild-type CDR3 AGPMKTSYDKVI | 0
79 | […] (CDR3 as printed); T6E derived by comparing it with the table's wild-type CDR3 AGPMKTSYDKVI | 0
80 | […] (CDR3 as printed); T6F derived by comparing it with the table's wild-type CDR3 AGPMKTSYDKVI | 0
81 | […] (CDR3 as printed); T6G derived by comparing it with the table's wild-type CDR3 AGPMKTSYDKVI | 0
82 | […] (CDR3 as printed); T6H derived by comparing it with the table's wild-type CDR3 AGPMKTSYDKVI | 0
83 | […] (CDR3 as printed); T6I derived by comparing it with the table's wild-type CDR3 AGPMKTSYDKVI | 9.21
84 | […] (CDR3 as printed); T6K derived by comparing it with the table's wild-type CDR3 AGPMKTSYDKVI | 0
